What was measured:
Test in all cases: ELISA; cytokine coated, ECM protein 0.02 to 320 nM, KD by non-linear fit
Vitronectin = biological target: Vitronectin
Osteopontin = biological target: Osteopontin
Fibronectin = biological target: Fibronectin
Tenascin C = biological target: Tenascin C
Fibrinogen = biological target: Fibrinogen

Tenascin C, sequence (P24821 23-2201): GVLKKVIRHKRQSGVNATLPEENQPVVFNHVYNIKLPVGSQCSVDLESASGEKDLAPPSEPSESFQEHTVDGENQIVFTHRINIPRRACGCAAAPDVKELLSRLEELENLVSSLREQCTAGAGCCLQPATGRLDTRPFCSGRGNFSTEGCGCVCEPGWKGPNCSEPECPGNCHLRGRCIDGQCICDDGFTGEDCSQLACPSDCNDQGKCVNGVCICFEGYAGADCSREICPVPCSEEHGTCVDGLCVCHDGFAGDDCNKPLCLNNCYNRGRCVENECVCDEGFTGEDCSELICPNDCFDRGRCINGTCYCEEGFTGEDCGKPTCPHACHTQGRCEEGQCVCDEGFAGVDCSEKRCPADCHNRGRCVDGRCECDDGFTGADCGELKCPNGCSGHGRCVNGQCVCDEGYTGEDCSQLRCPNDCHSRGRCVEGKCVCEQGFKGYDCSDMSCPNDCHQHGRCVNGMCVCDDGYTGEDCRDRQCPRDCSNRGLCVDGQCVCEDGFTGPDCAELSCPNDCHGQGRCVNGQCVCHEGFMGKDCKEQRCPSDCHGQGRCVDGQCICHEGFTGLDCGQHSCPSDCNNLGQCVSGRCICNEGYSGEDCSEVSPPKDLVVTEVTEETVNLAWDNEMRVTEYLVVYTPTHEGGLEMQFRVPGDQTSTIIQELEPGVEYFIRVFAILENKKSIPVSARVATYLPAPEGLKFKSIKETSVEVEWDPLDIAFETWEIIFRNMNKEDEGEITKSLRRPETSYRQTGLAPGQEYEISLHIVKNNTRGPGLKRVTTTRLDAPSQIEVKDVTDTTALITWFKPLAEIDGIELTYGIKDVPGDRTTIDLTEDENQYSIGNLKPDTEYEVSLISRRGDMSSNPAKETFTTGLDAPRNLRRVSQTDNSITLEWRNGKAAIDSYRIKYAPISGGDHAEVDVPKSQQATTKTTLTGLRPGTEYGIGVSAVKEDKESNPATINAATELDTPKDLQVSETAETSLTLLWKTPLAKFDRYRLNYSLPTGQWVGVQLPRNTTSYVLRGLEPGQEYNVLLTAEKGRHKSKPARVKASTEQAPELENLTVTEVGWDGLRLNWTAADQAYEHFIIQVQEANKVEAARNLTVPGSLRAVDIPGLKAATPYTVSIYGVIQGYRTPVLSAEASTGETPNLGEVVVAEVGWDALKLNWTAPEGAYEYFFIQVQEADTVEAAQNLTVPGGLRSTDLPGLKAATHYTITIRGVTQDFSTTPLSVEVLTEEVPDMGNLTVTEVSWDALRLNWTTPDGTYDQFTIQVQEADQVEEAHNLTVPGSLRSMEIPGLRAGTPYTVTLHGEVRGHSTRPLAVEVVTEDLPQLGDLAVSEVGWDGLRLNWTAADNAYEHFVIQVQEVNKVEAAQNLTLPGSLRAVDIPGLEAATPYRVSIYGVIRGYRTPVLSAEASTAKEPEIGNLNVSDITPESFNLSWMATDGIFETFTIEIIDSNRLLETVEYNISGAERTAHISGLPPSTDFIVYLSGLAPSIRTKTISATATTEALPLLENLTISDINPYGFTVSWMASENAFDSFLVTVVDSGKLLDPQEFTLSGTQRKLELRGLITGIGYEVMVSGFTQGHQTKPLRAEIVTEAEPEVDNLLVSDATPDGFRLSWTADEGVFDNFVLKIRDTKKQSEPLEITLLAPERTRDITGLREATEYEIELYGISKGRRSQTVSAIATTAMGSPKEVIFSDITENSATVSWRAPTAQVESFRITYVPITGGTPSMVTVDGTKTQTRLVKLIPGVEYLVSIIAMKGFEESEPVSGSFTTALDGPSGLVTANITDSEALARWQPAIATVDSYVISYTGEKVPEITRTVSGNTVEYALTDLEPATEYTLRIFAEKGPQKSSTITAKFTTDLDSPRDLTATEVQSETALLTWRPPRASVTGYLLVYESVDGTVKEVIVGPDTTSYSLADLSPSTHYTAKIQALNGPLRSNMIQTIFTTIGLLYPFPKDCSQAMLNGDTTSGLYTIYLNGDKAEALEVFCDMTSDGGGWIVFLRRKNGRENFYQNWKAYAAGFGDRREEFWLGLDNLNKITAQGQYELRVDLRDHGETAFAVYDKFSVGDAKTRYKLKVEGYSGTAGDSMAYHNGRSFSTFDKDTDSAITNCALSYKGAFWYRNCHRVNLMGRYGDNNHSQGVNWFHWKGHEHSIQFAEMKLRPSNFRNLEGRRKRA
human PDGF-BB, sequence (P01127 82-190 limits assumed): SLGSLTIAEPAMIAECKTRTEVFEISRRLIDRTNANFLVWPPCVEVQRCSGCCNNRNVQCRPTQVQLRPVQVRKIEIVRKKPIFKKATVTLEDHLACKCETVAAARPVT
Fibronectin, sequence (P02751 32-2477): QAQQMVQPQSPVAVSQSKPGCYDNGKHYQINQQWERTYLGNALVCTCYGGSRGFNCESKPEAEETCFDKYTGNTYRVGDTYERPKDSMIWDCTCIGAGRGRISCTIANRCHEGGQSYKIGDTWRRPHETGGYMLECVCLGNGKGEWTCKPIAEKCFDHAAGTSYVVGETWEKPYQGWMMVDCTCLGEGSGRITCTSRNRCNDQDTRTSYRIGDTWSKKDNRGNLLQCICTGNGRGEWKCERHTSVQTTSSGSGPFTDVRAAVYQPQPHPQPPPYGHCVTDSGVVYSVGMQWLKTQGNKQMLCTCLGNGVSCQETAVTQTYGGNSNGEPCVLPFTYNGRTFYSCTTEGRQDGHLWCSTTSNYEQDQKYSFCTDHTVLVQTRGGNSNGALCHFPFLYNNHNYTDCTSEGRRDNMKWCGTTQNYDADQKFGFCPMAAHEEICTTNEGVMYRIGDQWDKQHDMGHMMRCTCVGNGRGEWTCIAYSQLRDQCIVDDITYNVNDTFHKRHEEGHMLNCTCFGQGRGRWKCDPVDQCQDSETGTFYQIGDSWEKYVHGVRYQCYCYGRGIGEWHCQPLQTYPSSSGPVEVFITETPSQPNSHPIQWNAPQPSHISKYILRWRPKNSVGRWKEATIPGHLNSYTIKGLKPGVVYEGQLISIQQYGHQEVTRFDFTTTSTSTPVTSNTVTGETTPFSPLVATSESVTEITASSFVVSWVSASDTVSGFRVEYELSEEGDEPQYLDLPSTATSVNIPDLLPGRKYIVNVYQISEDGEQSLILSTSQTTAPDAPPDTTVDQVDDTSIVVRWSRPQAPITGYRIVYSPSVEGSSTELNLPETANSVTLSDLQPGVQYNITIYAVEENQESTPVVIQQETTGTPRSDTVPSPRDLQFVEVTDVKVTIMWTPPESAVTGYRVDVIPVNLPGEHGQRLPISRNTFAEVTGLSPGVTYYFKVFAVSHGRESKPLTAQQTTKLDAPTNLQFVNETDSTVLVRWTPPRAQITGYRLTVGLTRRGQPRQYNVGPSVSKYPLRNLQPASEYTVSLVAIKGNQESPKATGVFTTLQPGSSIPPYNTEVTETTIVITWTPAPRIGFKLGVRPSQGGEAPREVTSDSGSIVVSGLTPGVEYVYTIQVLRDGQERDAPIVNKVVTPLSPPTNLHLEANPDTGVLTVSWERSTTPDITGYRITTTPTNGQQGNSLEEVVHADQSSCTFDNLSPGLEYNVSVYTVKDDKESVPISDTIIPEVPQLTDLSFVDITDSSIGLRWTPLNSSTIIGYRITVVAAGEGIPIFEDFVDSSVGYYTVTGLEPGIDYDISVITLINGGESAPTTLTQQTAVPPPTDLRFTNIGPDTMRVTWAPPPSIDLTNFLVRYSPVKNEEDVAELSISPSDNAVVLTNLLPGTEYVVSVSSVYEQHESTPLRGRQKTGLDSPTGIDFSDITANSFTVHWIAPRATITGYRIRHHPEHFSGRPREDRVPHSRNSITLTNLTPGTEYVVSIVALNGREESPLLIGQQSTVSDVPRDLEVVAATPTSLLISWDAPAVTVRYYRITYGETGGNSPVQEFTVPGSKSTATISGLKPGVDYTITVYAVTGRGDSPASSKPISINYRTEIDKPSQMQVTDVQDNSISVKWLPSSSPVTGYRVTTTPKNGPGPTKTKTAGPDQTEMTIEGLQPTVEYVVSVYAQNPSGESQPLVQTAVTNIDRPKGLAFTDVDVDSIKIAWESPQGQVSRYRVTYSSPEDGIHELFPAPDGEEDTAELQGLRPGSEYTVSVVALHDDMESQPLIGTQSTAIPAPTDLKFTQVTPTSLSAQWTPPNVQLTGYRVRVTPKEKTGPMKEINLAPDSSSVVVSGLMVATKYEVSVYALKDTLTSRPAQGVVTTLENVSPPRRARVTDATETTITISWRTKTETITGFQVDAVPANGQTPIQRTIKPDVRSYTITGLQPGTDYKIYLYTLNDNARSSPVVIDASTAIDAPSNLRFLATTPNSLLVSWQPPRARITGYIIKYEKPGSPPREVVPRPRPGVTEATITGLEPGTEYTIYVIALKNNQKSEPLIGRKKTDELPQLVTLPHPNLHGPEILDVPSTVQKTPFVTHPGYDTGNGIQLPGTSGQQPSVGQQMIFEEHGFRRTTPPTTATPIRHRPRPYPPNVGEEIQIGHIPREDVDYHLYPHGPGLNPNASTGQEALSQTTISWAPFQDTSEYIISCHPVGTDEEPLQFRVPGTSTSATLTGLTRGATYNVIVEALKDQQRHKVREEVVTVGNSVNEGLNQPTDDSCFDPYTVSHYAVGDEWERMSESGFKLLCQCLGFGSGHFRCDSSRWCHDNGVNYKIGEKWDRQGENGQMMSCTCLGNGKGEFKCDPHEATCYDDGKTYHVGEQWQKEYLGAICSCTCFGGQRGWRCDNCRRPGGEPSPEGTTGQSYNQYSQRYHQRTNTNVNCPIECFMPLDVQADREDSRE
Osteopontin, sequence (P10451 17-314): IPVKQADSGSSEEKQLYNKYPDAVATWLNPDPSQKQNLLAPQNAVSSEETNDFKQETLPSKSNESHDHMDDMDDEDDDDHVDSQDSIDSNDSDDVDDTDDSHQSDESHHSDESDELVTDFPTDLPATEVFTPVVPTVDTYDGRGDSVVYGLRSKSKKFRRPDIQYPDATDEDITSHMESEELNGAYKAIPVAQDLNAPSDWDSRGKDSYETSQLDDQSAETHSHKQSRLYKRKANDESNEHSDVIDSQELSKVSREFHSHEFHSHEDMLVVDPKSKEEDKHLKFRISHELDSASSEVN

Substance | Kd (Vitronectin) [µM] | Kd (Osteopontin) [µM] | Kd (Fibronectin) [µM] | Kd (Tenascin C) [µM] | Kd (Fibrinogen) [µM]
VEGF-A165 (from UniProt P15692 27-191) (ligand) | 0.0709 | 0.071 | 0.0972 | 0.115 | 0.301
human VEGF-A121-PlGF2123-144 (from UniProt P15692 207-395) (ligand) | 0.0028 | 0.0264 | 0.0112 | 0.018 | 0.0058
PlGF2 (ligand) | 0.002 | 0.0131 | 0.0072 | 0.0101 | 0.0045
human PDGF-BB (from UniProt P01127 82-190) (ligand) | 0.0105 | 0.0203 | 0.0116 | 0.019 | 0.25

Reference: patent publication US20140010832A1
